According to the supplement of paper PMC10567573:

B1: MFF (parent)
chain: YTEGISQRMRVPEKLKVAPPNADL

Variants of: B1
Experiment: protein stability index of a GFP-peptide fusion (GPS, HEK-293T) (PSI 1-6); higher = more stable
Settings: c terminus: a fixed tail appended
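Also: lentivirally expressed fusions sorted by FACS into six bins by GFP to DsRed ratio, PSI derived from sequencing read proportions per bin multiplied by bin number.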

Going from YTEGISQRMRVPEKLPVAPPNADL [K16P] to YTEGISQRMRVPEKLIVAPPNADL [K16I], the protein stability index rises from 2.83 to 3.23.

Compared with YTEGISQRMRVPEKLEVAPPNADL [K16E], YTEGISQRMRVPEKLLVAPPNADL [K16L] is lower in protein stability index: 2.93 for the first, 2.62 for the second.

Compared with YTEGISQRMRVPEKLDVAPPNADL [K16D], YTEGISQRMRVPEKLYVAPPNADL [K16Y] is lower in protein stability index: 3.87 for the first, 2.81 for the second.

Going from YTEGISQRMRVPEKLNVAPPNADL [K16N] to YTEGISQRMRVPEKLKVAPPNAML [D23M], the protein stability index falls from 3.33 to 2.51.

First: YTEGISQRMRVPEKLKVAPPNAIL [D23I]
Second: YTEGISQRMRVPEKLKVAPPNAEL [D23E]
The protein stability index of the first is lower: 2.29 for the first, 2.36 for the second.

Compared with YTEGISQRMRVPEKLKVAPPNAKL [D23K], YTEGISQRMRVPEKLKVAPPNAHL [D23H] is higher in protein stability index: 2.63 for the first, 2.95 for the second.

Going from YTEGISQRMRVPEKLKVAPPNASL [D23S] to YTEGISQRMRVPEKLKVAPPNAQL [D23Q], the protein stability index rises from 2.11 to 2.36.

First: YTEGISQRMRVPEKLKVAPPNARL [D23R]
Second: KTEGISQRMRVPEKLKVAPPNADL [Y1K]
The protein stability index of the first is lower: 2.95 for the first, 4.27 for the second.

Going from STEGISQRMRVPEKLKVAPPNADL [Y1S] to PTEGISQRMRVPEKLKVAPPNADL [Y1P], the protein stability index rises from 4.48 to 4.64.

First: DTEGISQRMRVPEKLKVAPPNADL [Y1D]
Second: ATEGISQRMRVPEKLKVAPPNADL [Y1A]
The protein stability index of the first is lower: 4.48 for the first, 4.62 for the second.

Compared with VTEGISQRMRVPEKLKVAPPNADL [Y1V], WTEGISQRMRVPEKLKVAPPNADL [Y1W] is lower in protein stability index: 4.25 for the first, 4.21 for the second.

First: NTEGISQRMRVPEKLKVAPPNADL [Y1N]
Second: LTEGISQRMRVPEKLKVAPPNADL [Y1L]
The protein stability index of the first is higher: 4.67 for the first, 4.21 for the second.

Going from ITEGISQRMRVPEKLKVAPPNADL [Y1I] to YTEGISQRMRVTEKLKVAPPNADL [P12T], the protein stability index falls from 3.87 to 2.09.

Compared with YTEGISQRMRVYEKLKVAPPNADL [P12Y], YTEGISQRMRVLEKLKVAPPNADL [P12L] is lower in protein stability index: 2.58 for the first, 2.42 for the second.

Going from YTEGISQRMRVFEKLKVAPPNADL [P12F] to YTEGISQRMRVKEKLKVAPPNADL [P12K], the protein stability index rises from 1.88 to 2.57.

Going from YTEGISQRMRVQEKLKVAPPNADL [P12Q] to YTEGISQRMRVWEKLKVAPPNADL [P12W], the protein stability index falls from 2.78 to 2.46.

Going from YTEGISQRMHVPEKLKVAPPNADL [R10H] to YTEGISQRMQVPEKLKVAPPNADL [R10Q], the protein stability index rises from 2.52 to 3.11.

Going from YTEGISQRMPVPEKLKVAPPNADL [R10P] to YTEGISQRMLVPEKLKVAPPNADL [R10L], the protein stability index falls from 3.44 to 3.06.

Going from YTEGISQRMKVPEKLKVAPPNADL [R10K] to YTEGISQRMIVPEKLKVAPPNADL [R10I], the protein stability index falls from 3.16 to 2.97.

First: YTEGISQRMAVPEKLKVAPPNADL [R10A]
Second: YTEGISQRMRVPEKLKVAFPNADL [P19F]
The protein stability index of the first is lower: 2.17 for the first, 2.44 for the second.

Compared with YTEGISQRMRVPEKLKVACPNADL [P19C], YTEGISQRMRVPEKLKVASPNADL [P19S] is lower in protein stability index: 3.25 for the first, 2.62 for the second.

Going from YTEGISQRMRVPEKLKVATPNADL [P19T] to YTEGISQRMRVPEKLKVAWPNADL [P19W], the protein stability index falls from 2.51 to 1.91.

Going from YTEGISQRMRVPEKLKVALPNADL [P19L] to YTEGISQRMRVPEKLKVAAPNADL [P19A], the protein stability index falls from 3.41 to 2.51.

First: YTEGISQRMRVPEKLKVAEPNADL [P19E]
Second: YTEGISQRMRVPEKLKVAPCNADL [P20C]
The protein stability index of the first is higher: 2.56 for the first, 2.44 for the second.

Compared with YTEGISQRMRVPEKLKVAPGNADL [P20G], YTEGISQRMRVPEKLKVAPANADL [P20A] is higher in protein stability index: 2.91 for the first, 2.98 for the second.

Compared with YTEGISQRMRVPEKLKVAPNNADL [P20N], YTEGISQRMRVPEKLKCAPPNADL [V17C] is lower in protein stability index: 3.12 for the first, 2.18 for the second.

Going from YTEGISQRMRVPEKLKRAPPNADL [V17R] to YTEGISQRMRVPEKLKLAPPNADL [V17L], the protein stability index falls from 3.22 to 2.88.

Going from YTEGISQRMRVPEKLKDAPPNADL [V17D] to YTEGISQRMRVPEKLKWAPPNADL [V17W], the protein stability index falls from 3.18 to 2.35.

Compared with YTEGISQRMRVPEKLKTAPPNADL [V17T], YTEGISQRMRVPEKLKSAPPNADL [V17S] is lower in protein stability index: 2.89 for the first, 2.48 for the second.

First: YTEGISQRMRVPEKLKQAPPNADL [V17Q]
Second: YTEGISQRMRVPEKLKYAPPNADL [V17Y]
The protein stability index of the first is higher: 2.95 for the first, 2.3 for the second.

First: YTEGISQRMRVPEKLKMAPPNADL [V17M]
Second: YTEGISQRPRVPEKLKVAPPNADL [M9P]
The protein stability index of the first is lower: 2.75 for the first, 3.27 for the second.

Compared with YTEGISQRQRVPEKLKVAPPNADL [M9Q], YTEGISQRDRVPEKLKVAPPNADL [M9D] is higher in protein stability index: 2.79 for the first, 3.57 for the second.

Going from YTEGISQRARVPEKLKVAPPNADL [M9A] to YTEGISQRHRVPEKLKVAPPNADL [M9H], the protein stability index rises from 2.41 to 3.17.

Going from YTEGISQRKRVPEKLKVAPPNADL [M9K] to YTEGISQRLRVPEKLKVAPPNADL [M9L], the protein stability index falls from 3.37 to 3.22.

Going from YTEGISQRERVPEKLKVAPPNADL [M9E] to YTEGISQRSRVPEKLKVAPPNADL [M9S], the protein stability index falls from 2.89 to 2.55.

Compared with YTEGISTRMRVPEKLKVAPPNADL [Q7T], YTEGISIRMRVPEKLKVAPPNADL [Q7I] is higher in protein stability index: 2.71 for the first, 2.85 for the second.

Compared with YTEGISGRMRVPEKLKVAPPNADL [Q7G], YTEGISERMRVPEKLKVAPPNADL [Q7E] is higher in protein stability index: 2.65 for the first, 3.26 for the second.

Compared with YTEGISCRMRVPEKLKVAPPNADL [Q7C], YTEGISSRMRVPEKLKVAPPNADL [Q7S] is lower in protein stability index: 2.9 for the first, 2.45 for the second.

First: YTEGISDRMRVPEKLKVAPPNADL [Q7D]
Second: YTEGISPRMRVPEKLKVAPPNADL [Q7P]
The protein stability index of the first is higher: 3.43 for the first, 3.4 for the second.

First: YTECISQRMRVPEKLKVAPPNADL [G4C]
Second: YTENISQRMRVPEKLKVAPPNADL [G4N]
The protein stability index of the first is lower: 3.47 for the first, 3.75 for the second.

Going from YTEKISQRMRVPEKLKVAPPNADL [G4K] to YTEQISQRMRVPEKLKVAPPNADL [G4Q], the protein stability index falls from 3.63 to 3.5.

First: YTEWISQRMRVPEKLKVAPPNADL [G4W]
Second: YTEEISQRMRVPEKLKVAPPNADL [G4E]
The protein stability index of the first is lower: 2.25 for the first, 3.61 for the second.

Going from YTELISQRMRVPEKLKVAPPNADL [G4L] to YTESISQRMRVPEKLKVAPPNADL [G4S], the protein stability index rises from 2.47 to 3.88.

Going from YTEGISQRMRVPEFLKVAPPNADL [K14F] to YTEGISQRMRVPERLKVAPPNADL [K14R], the protein stability index rises from 2.96 to 3.55.

Compared with YTEGISQRMRVPEALKVAPPNADL [K14A], YTEGISQRMRVPEQLKVAPPNADL [K14Q] is higher in protein stability index: 3.06 for the first, 3.41 for the second.

Going from YTEGISQRMRVPEILKVAPPNADL [K14I] to YTEGISQRMRVPEGLKVAPPNADL [K14G], the protein stability index rises from 2.71 to 3.28.

Compared with YTEGISQRMRVPETLKVAPPNADL [K14T], YTEGISQRMRVPEWLKVAPPNADL [K14W] is lower in protein stability index: 3.06 for the first, 2.11 for the second.
